From publication PMC5727127 (2017) come the findings set out here.

Assay [1] concerns the target 3TD of SETDB1, Y268A mutant, as used in ITC (UniProt Q15047 190-410, Y268A). Briefly: ITC. (In ITC the heat of successive injections is recorded.)
For assay [2], the target named is T1, triple Tudor domain (3TD) of SETDB1, wildtype, as used in solution (ITC, NMR, crystals) (UniProt Q15047 190-410). As to the kind of experiment: ITC.
The target in assay [3] is 3TD of SETDB1, W358A mutant, as used in ITC and crystals (UniProt Q15047 190-410, W358A). As to the kind of experiment: ITC.
Assay [4] has as its target 3TD of SETDB1, R384A mutant, as used in ITC (UniProt Q15047 190-410, alanine mutation of R384). Briefly: ITC.
In assay [5] the target is T2, 3TD of SETDB1, F332A mutant, as used in ITC (UniProt Q15047 190-410, F332A). As to the kind of experiment: ITC.
Assay [6] deals with T2, 3TD of SETDB1, F332A mutant, as used in …. Briefly: ITC. The source holds these as a separate data set.
For assay [7], the target named is T1, triple Tudor domain (3TD) of SETDB1, …. As to the kind of experiment: NMR.
Assay [8] has the same target. As to the kind of experiment: ITC. The source holds these as a separate data set.

Read-outs that look alike come from different tables or passages of the source. Where no end group is shown, it is not given here.

B1: H3K9me3/K14ac peptide in solution (ITC; crystals) (peptide)
chain: KQTARK(Me3)STGGK(Ac)APRKQ
Broadly, the Kd is the constant that tells how readily two partners part at equilibrium. High values mean a looser complex, low ones a tighter complex. Take B1: the Kd in assay [1] stood at 135 µM; in assay [2], 23.9 µM; in assay [3] it was 55.6 µM; in assay [4] it was 9.2 µM.

B2: H3K9me2/K14ac peptide in solution (ITC; crystal with W358A), limits not stated (peptide)
chain: KQTARK(Me2)STGGK(Ac)APRKQ
Take B2: the Kd in assay [5] was 353 µM; in assay [1], 8.1 µM; in assay [6], roughly 350 µM; in assay [2] it was 9.3 µM; in assay [3] it was 174 µM; in assay [4], 2.6 µM.

B3: monomodified H3K14ac peptide in solution (ITC, NMR; crystal) (peptide)
chain: KQTARKSTGGK(Ac)APRKQ
Consider B3, for which the Kd is 930 µM in assay [7] and greater than 500 µM in assay [8].

B4: H3K9me1/K14ac peptide in solution (ITC) (peptide)
chain: KQTARK(Me)STGGK(Ac)APRKQ
For the molecule B4, the Kd was 19.2 µM in assay [1], 29.4 µM in assay [2] and 5.1 µM in assay [4].
